In the test the target is SVGmu, modified Sindbis virus envelope glycoprotein (SEQ ID NO: 11) (Sindbis virus) (UniProt P03316). Kind of test: confocal imaging; anti-HA-biotin plus Cy5-streptavidin staining of GFP-vpr-labeled lentiviral particles on coverslips.

A value given as a limit tells only on which side of the number the result lay.

For the substance “anti-HA-biotin antibody (Miltenyi Biotec)”, the fraction of GFP-labeled particles stained for SVGmu is greater than 90%.
